From the supplement of paper PMC9170038

Test system: K4 kissing-loop RNA reporter
Assay: apparent KD of K4 kissing-loop reporter; higher = weaker reporter binding
Conditions: Eterna round: R107
Experimental: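 RNA-MaP round R107: designed RNA switches with theophylline, tryptophan, arginine or FMN aptamers are transcribed on-chip within common flanks. They are titrated with a labelled K4 kissing-loop RNA reporter in RNA-MaP buffer (100 mM Tris pH 7.5, 80 mM KCl, 4 mM MgCl2), without ligand or with the indicated ligand. Median apparent KD per design.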

[1] = input ligand: theophylline 20 uM
[2] = input ligand: tryptophan 2.4 mM
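Also: bound reporter read as fluorescence of individual clusters on recovered sequencing chips by microscopy, with normalized cluster intensities fitted with a binding model.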

| Sequence | apparent KD of K4 kissing-loop reporter (input ligand: FMN 200 uM) [nM] | apparent KD of K4 kissing-loop reporter (input ligand: arginine 13.2 mM) [nM] | apparent KD of K4 kissing-loop reporter (input ligand: none) [nM] | apparent KD of K4 kissing-loop reporter [1] [nM] | apparent KD of K4 kissing-loop reporter [2] [nM] |
| --- | --- | --- | --- | --- | --- |
| AGUGGACGUGUCCGGAGUGAUGUUCCGGAUACCAGACACGAAAGUGUCCCUUGGCAGCAGGAGUGAUGUUCCGGCGUUCACUAAA [Omei KL Theo A Exc B v3] | 351 | 223 | 314 | 347 | 274 |
| GCUAUGGUUGGAAGGAGCGUUGGGUUACUAAUAAGAGUGAUGUUCGAUAGUAGGUAAUUGUAGCAGGUAGGUCGCCAACUAUAGC [KL-Arg B26] | 290 | 304 | 329 | 234 | 211 |
| ACGUAGUUCUAGGAUACCAGCCAAAUAGCCAGGACGAGAGUCCUGGCUGCCAGUGAUGUUGGCCCUUGGCAGCCUAGAACUACGA [Theo B Ex Mod Omei v10] | 166 | 134 | 138 | 233 | 146 |
| UGGAGUUGACGAAAAGUCAACUCCUGAGAAGGAGCGGACGAAAGUCCAGGUAGGUCGCUCACUACCAGUGAUGUUGGUACUUUAA | 228 | 285 | 320 | 361 | 222 |
| CUUGGUCCACGAAGGAGCGCCGUGCAGUGAUGUUGCAGUCAGAUCGAGUGAUGUUUCGGGCGGCAGGUAGGUCGCGUGGCCCUUU [Excusion Arginine B GF 25] | 655 | 362 | 768 | 640 | 464 |
| GUGCGGCUAGUGAUGUUGGUUGCGUGGGAAGGAGCGCAGAAACAUGCAGGUAGGUCGCCCACAUCUCGGAUAAGAGACUAAUUCA [Letiisve] | 606 | 182 | 168 | 220 | 307 |
| GCAGUGAUGUUGCUCGUUUCAUCGCGAGAUACCAGACCAUAUGAGGUCCCUUGGCAGCUCUAGUCAUCUGGUCCUUUUGCGUACU [theeternabot_exclusion_KL_Theo_A_2] | 906 | 620 | 941 | 722 | 653 |
| GGUAGUGCUAGCGAUACCAGUCAUAUCGCUCUGGAGUGAUGUUCCGGAACGUGCGGAGAAGACCCUUGGCAGCGCUUGACUGGAA [Exclusion Theophylline B GF6] | 758 | 539 | 574 | 538 | 736 |
| UUAAGGGUCCGAGGAUAUCUCCCAGUGAUGUUGGGCGAUACGGCCCUUAAGACGAAUGGUUGAAGGAGAGAAGGCGGCUCCCGAU [Onatbi] | 119 | 132 | 108 | 126 | 110 |
| AGUCCACUCUAAAGAGUGGACCUAAGGGAUACCAGUGAUGUUGGUCACCCUUGGCAGCCCAGGGCCCGGCGAAUAGCCGGGCCCA [#10 K4 Theophylline A Exclusion] | 125 | 99.8 | 115 | 121 | 125 |
| UCCUGCAAUCAGCCACGAAAGUGGAUGGAUACCAGAGUCGAAAGACUCCCUUGGCAGCCAGUGAUGUUGGAAGCAGGUAAAUAAA | 583 | 501 | 761 | 342 | 1290 |
| ACACUUUACGUAGGAUAUGCGACGAGUGAUGUUCGUCAGGCGGCUUUAGAUUAAACAAGCCGCCUAGCAGAAGGACGGGCAGUGU [Zaorleon] | 126 | 147 | 188 | 178 | 144 |
| AAGGCCACGAGAAGGAGCGUGUUGUGGAGUGAUGUUCCAUUGUAGACCUAAGGUCUGCAAGCACAGGUAGGUCGCUCGUGGUCAA [whbob_SS_Arginine_B_2t149] | 127 | 123 | 139 | 138 | 127 |
| UGUGAACAAAAGUAGAGUGGACCACUAUAGCGAGGACCGGUACGGCCGCCACUCGUAUAUGAAUUCAGUGAUGUUGAAAAGAGCU [whbob_EX_Tryp_A_t10] | 180 | 281 | 231 | 306 | 165 |
| GCUACCUAGGCAGGAUAUCGUAUUGAGUGAUGUUCAAUAACGGUCUACCAAAGGUAGACCGACCUUCGAGAAGGGCCUAGGUAGC | 143 | 163 | 193 | 174 | 166 |
| GGCCACGGGCGAGGAUAUGGGCAUGAUUCAUCCUGGAGUGAUGUUCCAGGUCCUACGUUUCGAGCACCAGAAGGCGUUUGUUGCU [Biazaqure] | 166 | 521 | 646 | 489 | 524 |
| ACGCGCGCGAGUGAUGUUCGGAGCGGCUGGCAGGAUAUGUAGCAAUGCAGAAGGGUCGUGGCGGCGCGGCCGUAAGGCGGCGCCG [#2 Exclusion - FMN A Attempt #14 (HarryS)] | 173 | 310 | 404 | 535 | 237 |
| GCCGUAGAUUGAAGGAGCGACAUAAACGAUGUUCUGGUAGUGAUGUUACCUUAGCAGGCAUGUCAGGUAGGUCGCAAUCUACGGC | 238 | 133 | 209 | 162 | 176 |
| ACAUUUUCAAGUGAUACCAGACAUUUUUUUUUCUUUAUUUAUGCUAAGUGAUGUUUAGCAGUCCCUUGGCAGCACUAUUUAACUA [JR_Nu_SSTheophyB_Sub031] | 121 | 101 | 93.2 | 169 | 115 |
| UGGAGGAAUCGACCUCGAAAGAGGAUGGAUACCAGAGAAGAAAUUCUCCCUUGGCAGCCAGUGAUGUUGGAACCUCCUAAAUAAA [#SwitchBubble 18 #K4Late] | 609 | 445 | 706 | 354 | 622 |
| CGAGAGGUCUUGUUUGGAUGUGUUUUAUGGCGAGGACCGGUACGGCCGCCACUCGGGUGAUGUUAGUGAUGUUGAUGUAGUGAUG [dcdmullin] | 91.9 | 79.9 | 93.4 | 162 | 76.9 |
| UUUUUUAAGAUGUCGACCAACCCGAAGCUACGAGGACCGGUACGGCCGCCACUCGCCAGUGAUGUUGGCGACUGGUGAAACCAUG [Ceesaror] | 133 | 97.8 | 110 | 103 | 227 |

| Sequence | apparent KD of K4 kissing-loop reporter (input ligand: FMN 200 uM) [nM] | apparent KD of K4 kissing-loop reporter (input ligand: arginine 13.2 mM) [nM] | apparent KD of K4 kissing-loop reporter (input ligand: none) [nM] | apparent KD of K4 kissing-loop reporter [1] [nM] | apparent KD of K4 kissing-loop reporter [2] [nM] |
| --- | --- | --- | --- | --- | --- |
| AAUUUUAAUAAUAAAUAAUAAAUAAAUGAUACCAGUAUUUUUUUUUACCCUUGGCAGCGUAUAUAAGGGCAGUGAUGUUGUCAGA [whbob_SS_Theo_A_w59] | 223 | 144 | 212 | 232 | 164 |
| GUAUCGCUAGGAGGAUAUUUCAAAUAACAAAUAAAUGGUUAUACGGAGUGAUGUUCCGAUUUACGGAAAGAAGGCCUAGUGAUAC [FMN B 4] | 112 | 203 | 210 | 218 | 203 |
| CAUUCUAAAUGCAGUGAUGUUGCAACUGAUACCAGUAUCGAAAGAUACCCUUGGCAGCGGAAAACCGCUACGUUUUUUUAGAAUG [Ex Theophylline A K4 23] | 264 | 369 | 352 | 438 | 243 |
| UGGAGUUGACGAAAAGUCAACUCCUGAGAUACCAGUGACGAAGGUCACCCUUGGCAGCUCACUGCCAGUGAUGUUGGAAGAUAAA [whbob_SS_Theo_A_w47] | 273 | 292 | 303 | 396 | 174 |
| UAAGAACAGUCGGCCGCCACUUGAACUACAGAAGUAGGUAUAGCACCGUGAGUGAUGUUCACUGAAAGGACCGGGACUUGCUCCG [theeternabot_sameState_KL_Trp_B_30] | 476 | 310 | 399 | 430 | 574 |
| UAGGAGUGAUGUUCCUUUAGCAGGUAGGAAGGAGCGCCCAUUUGGGCAGGUAGGUCGCCUACUGGCCCUAAGUUAAACCUUAGGC [KL-SSArg-A12] | 160 | 161 | 146 | 161 | 118 |
| UUUGUGAGUGAUGUUUGCAAUACGUUACCGAAGGAUAUUGUUGCGCCAAGAAGGUCGGAUGGAUCCAUGGGACAUGCCCUGGAGA [theeternabot_sameState_KL_FMN_A_45] | 617 | 384 | 509 | 450 | 474 |
| AGGGUAAGGCGUUAACAUGACACCUGGGAAGGAGCGCGGUACACCGCAGGUAGGUCGCCCAGUGAUGUUGGGUGUAUGUAUGAGU [KL-XArg-A21] | 170 | 120 | 139 | 154 | 132 |
| CUUUGGAGUGAUGUUCCAGGUUGUACGGAUACCAGCCAAGCCAGAGGCCCUUGGCAGCCGAGUAUUGCAGUGAUGUUGCGAUGGG [Same State Theophylline A GF 2] | 304 | 239 | 282 | 335 | 261 |
| CUGUUGUAGACUGAUACCAGUCUCACAGCAGAUGUGUGGGACUUAGUGAUGUUAAGUACCGACCCUUGGCAGCAGUCUACGACCU [Theo B SS t6] | 428 | 374 | 377 | 452 | 394 |
| UCUGCUGUAUAUGAUACCAGCAGUGAGAGACGAGAAGUAUAGUGAUGUUAUAUGAGAGAAUGCCCUUGGCAGCGUGUGCGUGUGG [SSTheophylB.aA] | 96.3 | 94.3 | 74.4 | 102 | 64.8 |
| CGCUGGGCGAGUGAUGUUCGCUCACGUGAUACCAGUGCCAUCCAACACCCUUGGCAGCACGCGGGCAGUGAUGUUGUCCUUGUAU [Exclusion Theophylline A GF6] | 130 | 117 | 127 | 109 | 119 |
| GGAUAGGAUAGAGGAUAUGGAUUAGGCAAGAAUAACUUGUCAUGUAAAUCCAUGAGGAGUGAUGUUCCAGAAGGCUGUCCUAUCG [MatMod 7 - Jieux - Exclusion - FMN B] | 349 | 116 | 114 | 112 | 90.7 |
| AAGUGCCUCAAGAGGCAGUAUCUGCCUCAACGAGGACCGGUACGGCCGCCACUCGAAUAAUAGAGUGAUGUUCUAAGAGGCACAA [AK1.5 SS Tryptophan A] | 461 | 284 | 483 | 261 | 432 |
| UUACUACCCAGUGAUGUUGGGUAGCGGCGGCGAGGACCGGUACGGCCGCCACUCGGCGCACGGGAGUGAUGUUCCUGGGAAUAUA [Same State Tryptophan A GF 10] | 281 | 187 | 375 | 709 | 254 |
| AAGAGUAAACUCUAACUCCUUAAGUCCGAAGGAGCGACUCAAUGGUCAGGUAGGUCGCGGACAAUCCUAGUGAUGUUAGGAUCUG [Arg A SS t5] | 252 | 220 | 268 | 260 | 211 |
| AAUAUAUUGUGAAGGAGCGCGAAAAGCAGUGAUGUUGCUUACUUACAAUUUAUUUUUUACACGCAGGUAGGUCGCACAAUAUAUA [JR_SSArginiB_Sub015] | 234 | 223 | 269 | 280 | 220 |
| GUCUCAAAAGAGGCAAGCACUCACGAGGACAAGGAUAUCAUUUCAAUGAGAAGGUGUCCUCGUCCUCAGUGAUGUUGAGGAGUGC [Omei KL FMN A SS E 1] | 423 | 159 | 259 | 299 | 233 |
| GUGCAAAGCACCGGCACGAGCAGCCUAAAGGAGGAUAUGACGAAAGUCAGAAGGCCUAGUGAUGUUAGGUCUUGCUUGAGUCGAA [Omei KL FMN A Exc B v2] | 156 | 214 | 301 | 323 | 320 |
| CGCGCCCAGCCGGAUACCAGUGACCCGCUGGGAACCGCGGGCCCAGAGUGAUGUUCGGGACACCCUUGGCAGCCGCCUGGGCGGU [#2 Same State - Theophylline B Attempt #10 (HarryS)] | 2380 | 576 | 1270 | 576 | 1570 |
| AUUAAUUUCAGAGGAUAUCGUAUUAAUAUUUUAUCUAUCUAUAUAUGCAGUGAUGUUGCAAUAAUUCGAGAAGGCUGAUUUAUAA [JR_ExcFMNB_Sub009] | 93.9 | 101 | 52.3 | 91.8 | 47.7 |
